Measurements published in patent publication US8748182B2, “Mutant proteins and methods for producing them” (Heptares Therapeutics Limited, priority 2007, dated 2014).
Where a chain is given by its changes, count along the chain named. Names and notes keep the numbering of the source.

Tests used:
[1] = Thermostability assay of detergent-solubilised βAR34-424 and mutants expressed in E. coli ([3H]-DHA binding after heating 30 min); conditions: for increase in Tm compared to βAR34-424 (native protein) / Tm (° C.): DDM-solubilised; for increase in Tm compared to βAR34-424 (native protein): heated without ligand; for Tm (° C.): heated 30 min without ligand, then [3H]-DHA binding, E. coli, mean ± S.E. from duplicates
Protocol: To determine Tm in the absence of ligand (apo-state, discontinuous lines), detergent-solubilised receptors were incubated for 30 minutes at the temperatures indicated before carrying out the binding assay. […] Data points are from duplicates measurements in a representative experiment.
Binding assays were performed using [^3H]-dihydroalprenolol (DHA) as radioligand as described under “Methods”. Samples were heated for 30 minutes at different temperatures before the assay. […] Data points are from duplicates of one single experiment. This experiment has been repeated several times with similar results.
Expression of βAR and the mutants was performed in XL10 cells (Stratagene). Cultures of 50 ml of 2×TY medium containing ampicillin (100 μg/ml) were grown at 37° C. with shaking until OD600=3 and then induced with 0.4 mM IPTG. Induced cultures were incubated at 25° C. for 4 h and then cells were harvested by centrifugation at 13,000×g for 1 min (aliquots of 2 ml) and stored at −20° C. For the assays, cells were broken by freeze-thaw (five cycles), resuspended in 500 μl of buffer [20 mM Tris pH 8, 0.4 M NaCl, 1 mM EDTA and protease inhibitors (Complete™, Roche)]. After an incubation for 1 h at 4° C. with 100 μg/ml lysozyme and DNase I (Sigma), samples were solubilized with 2% DDM on ice for 30 minutes. Insoluble material was removed by centrifugation (15,000×g, 2 min, 4° C.) and the supernatant was used directly in radioligand binding assays.
Single point binding assays contained 20 mM Tris pH 8, 0.4 M NaCl, 1 mM EDTA, 0.1% DDM (or corresponding detergent) with 50 nM [^3H]-DHA and 20-100 μg membrane protein in a final volume of 120 μl; equilibration was for 1 h at 4° C. Thermostability was assessed by incubating the binding assay mix, with or without [^3H]-DHA at the specified temperature for 30 minutes; reactions were placed on ice and [^3H]-DHA added as necessary and equilibrated for a further hour. […] Radioactivity was counted on a Beckman LS6000 liquid scintillation counter and data were analyzed by nonlinear regression using Prism software (GraphPad).

[2] = Thermostability of solubilised adenosine A2a receptor and mutants (radioligand binding after or during heating); format: physicochemical; conditions: for thermostability assayed with 3H-ZM241385 (antagonist) / thermostability measured with 3H-NECA (agonist): Ligand(−) format, binding after the heating step
Text: FIG. 12 Flow chart showing the two different assay formats of ligand (+) and ligand (−) used to determine receptor thermostablity.
• 1. 315 site-directed mutants made between residues 2-316 of A2aR. • 2. All of these mutants have been assayed for thermostability using an assay measuring agonist and antagonist binding after the heating step (Ligand(−) format as described in FIG. 12). • a. […] Mutations have been combined to generate mutants in a putative antagonist conformation. Wildtype A2aR has a Tm of 31° C. with ZM241385 bound. • a. Rant17 A54L+K122A+L235A Tm 48° C. (ZM241385 bound) • b. Rant19 A54L,T88A,V239A+A204L Tm 47° C. (ZM241385 bound) • c. Rant21 A54L,T88A,V239A+K122A Tm 49° C. (ZM241385 bound) • 4. Mutations from the agonist screen have been combined, but have led to only a very low level of improvement in Tm of +2° C.

[3] = 1% DDM (no glycerol), apo-state, S.D. <1° C.
[4] = 1% DDM (no glycerol), ligand-occupied state, S.D. <1° C.

## M90A: βAR34-424 point mutant M90A
[1]
  increase in Tm compared to βAR34-424 (native protein): 8 °C

## Y227A: βAR34-424 point mutant Y227A
[1]
  increase in Tm compared to βAR34-424 (native protein): 8 °C

## m4-7: βAR34-424 with G67A, G98A, V230A
[1]; Table 1
  Tm (° C.): 38.0 ± 1.2 °C
[1]; m4-1 to m4-7 to m4-2, m18 to m23
  further increase in Tm on adding one mutation to the preceding mutant: 2 °C

## m6-4: βAR34-424 with R68S, Y227A, A234L, A282L
[1]; Table 1
  Tm (° C.): 41.6 ± 0.1 °C

## m6-5: βAR34-424 with R68S, A234L, A282L, A334L
[1]; Table 1
  Tm (° C.): 41.9 ± 0.5 °C

## m6-9: βAR34-424 with R68S, Y227A, A234L, A282L, A334L
[1]; Table 1
  Tm (° C.): 43.7 ± 0.4 °C

## m6-10: βAR34-424 with R68S, Y227A, A282L, A334L
[1]; Table 1
  Tm (° C.): 47.4 ± 1.1 °C

## m6-11: βAR34-424 with R68S, A282L, A334L
[1]; Table 1
  Tm (° C.): 39.1 ± 0.5 °C

## m7-1: βAR34-424 with M90V, A282L, F338M
[1]; Table 1
  Tm (° C.): 43.0 ± 0.8 °C

## m7-2: βAR34-424 with M90V, A282L
[1]; Table 1
  Tm (° C.): 38.9 ± 0.6 °C

## m7-5: βAR34-424 with M90V, Y227A
[1]
  increase in Tm compared to βAR34-424 (native protein): 13 °C
[1]; Table 1
  Tm (° C.): 45.2 ± 1.0 °C

## m7-6: βAR34-424 with M90V, I129V
[1]; Table 1
  Tm (° C.): 40.0 ± 0.6 °C

## m7-7: βAR34-424 with M90V, Y227A, F338M
[1]; Table 1
  Tm (° C.): 45.2 ± 2.0 °C

## m10-4: βAR34-424 with R68S, M90V, V230A, A334L
[1]; Table 1
  Tm (° C.): 46.9 ± 1.0 °C

## m10-8: βAR34-424 with R68S, M90V, V230A, F327A, A334L
[1]; Table 1
  Tm (° C.): 47.3 ± 1.4 °C

## m17: βAR34-424 with R68S, M90V, Y227A, V230A, F327A, A334L
[1]; Table 2
  Tm (° C.): 48.2 ± 1.4 °C

## m18: βAR34-424 with R68S, M90V, Y227A, V230A, A282L, F327A, F338M
[1]; Table 2
  Tm (° C.): 49.6 °C

## m19: βAR34-424 with R68S, M90V, Y227A, A282L, F327A, F338M as printed (same as m23)
[1]; Table 2
  Tm (° C.): 49.0 ± 0.8 °C

## m20: βAR34-424 with R68S, M90V, F327A, A334L
[1]; Table 2
  Tm (° C.): 48.4 ± 0.7 °C

## m21: βAR34-424 with R68S, M90V, Y227A, F327A, A334L
[1]; Table 2
  Tm (° C.): 47.0 ± 1.3 °C

B1: V57A: A2aR point mutant (protein, UniProt P29274 1-412, looked up, variant V57A)
Adenosine receptor A2a: MPIMGSSVYITVELAIAVLAILGNVLVCWAVWLNSNLQNVTNYFVVSLAAADIAVGALAIPFAITISTGFCAACHGCLFIACFVLVLTQSSIFSLLAIAIDRYIAIRIPLRYNGLVTGTRAKGIIAICWVLSFAIGLTPMLGWNNCGQPKEGKNHSQGCGEGQVACLFEDVVPMNYMVYFNFFACVLVPLLLMLGVYLRIFLAARRQLKQMESQPLPGERARSTLQKEVHAAKSLAIIVGLFALCWLPLHIINCFTFFCPDCSHAPLWLMYLAIVLSHTNSVVNPFIYAYRIREFRQTFRKIIRSHVLRQQEPFKAAGTSARVLAAHGSDGEQVSLRLNGHPPGVWANGSAPHPERRPNGYALGLVSGGSAQESQGNTGLPDVELLSHELKGVCPEPPGLDDPLAQDGAGVS
[2]
  thermostability assayed with 3H-ZM241385 (antagonist): improved thermostability

B2: Rant19: A2aR with A54L, T88A, V239A+A204L (protein, UniProt P29274 1-412, looked up, variant A54L T88A V239A A204L)
Adenosine receptor A2a: B1 Adenosine receptor A2a with A54L, A57V, T88A, A204L, V239A
[2]
  Tm (ZM241385 bound): 47 °C

B3: G152A: A2aR point mutant (protein, UniProt P29274 1-412, looked up, variant G152A)
Adenosine receptor A2a: B1 Adenosine receptor A2a with A57V, G152A
[2]
  thermostability assayed with 3H-ZM241385 (antagonist): improved thermostability

B4: L167A: A2aR point mutant (protein, UniProt P29274 1-412, looked up, variant L167A)
Adenosine receptor A2a: B1 Adenosine receptor A2a with A57V, L167A
[2]
  thermostability measured with 3H-NECA (agonist): improved thermostability

B5: R199A: A2aR point mutant (protein, UniProt P29274 1-412, looked up, variant R199A)
Adenosine receptor A2a: B1 Adenosine receptor A2a with A57V, R199A
[2]
  thermostability measured with 3H-NECA (agonist): improved thermostability

B6: Rag 1: A2aR with A184L/R199A/L272A (protein, UniProt P29274 1-412, looked up, variant A184L R199A L272A)
Adenosine receptor A2a: B1 Adenosine receptor A2a with A57V, A184L, R199A, L272A
[2]; [3]
  Tm (° C.) − agonist: 26 °C
[2]; [4]
  Tm (° C.) + agonist: 34 °C

B7: Q210A: A2aR point mutant (protein, UniProt P29274 1-412, looked up, variant Q210A)
Adenosine receptor A2a: B1 Adenosine receptor A2a with A57V, Q210A
[2]
  thermostability measured with 3H-NECA (agonist): improved thermostability

B8: A203L: A2aR point mutant (protein, UniProt P29274 1-412, looked up, variant A203L)
Adenosine receptor A2a: B1 Adenosine receptor A2a with A57V, A203L
[2]
  thermostability assayed with 3H-ZM241385 (antagonist): improved thermostability
  thermostability measured with 3H-NECA (agonist): improved thermostability

B9: P149A: A2aR point mutant (protein, UniProt P29274 1-412, looked up, variant P149A)
Adenosine receptor A2a: B1 Adenosine receptor A2a with A57V, P149A
[2]
  thermostability assayed with 3H-ZM241385 (antagonist): improved thermostability

B10: H75A: A2aR point mutant (protein, UniProt P29274 1-412, looked up, variant H75A)
Adenosine receptor A2a: B1 Adenosine receptor A2a with A57V, H75A
[2]
  thermostability assayed with 3H-ZM241385 (antagonist): improved thermostability

B11: L235A: A2aR point mutant (protein, UniProt P29274 1-412, looked up, variant L235A)
Adenosine receptor A2a: B1 Adenosine receptor A2a with A57V, L235A
[2]
  thermostability assayed with 3H-ZM241385 (antagonist): improved thermostability

B12: A184L: A2aR point mutant (protein, UniProt P29274 1-412, looked up, variant A184L)
Adenosine receptor A2a: B1 Adenosine receptor A2a with A57V, A184L
[2]
  thermostability measured with 3H-NECA (agonist): improved thermostability

B13: Rant17: A2aR with A54L+K122A+L235A (protein, UniProt P29274 1-412, looked up, variant A54L K122A L235A)
Adenosine receptor A2a: B1 Adenosine receptor A2a with A54L, A57V, K122A, L235A
[2]
  Tm (ZM241385 bound): 48 °C

B14: E151A: A2aR point mutant (protein, UniProt P29274 1-412, looked up, variant E151A)
Adenosine receptor A2a: B1 Adenosine receptor A2a with A57V, E151A
[2]
  thermostability assayed with 3H-ZM241385 (antagonist): improved thermostability

B15: A231L: A2aR point mutant (protein, UniProt P29274 1-412, looked up, variant A231L)
Adenosine receptor A2a: B1 Adenosine receptor A2a with A57V, A231L
[2]
  thermostability assayed with 3H-ZM241385 (antagonist): improved thermostability

B16: A204L: A2aR point mutant (protein, UniProt P29274 1-412, looked up, variant A204L)
Adenosine receptor A2a: B1 Adenosine receptor A2a with A57V, A204L
[2]
  thermostability assayed with 3H-ZM241385 (antagonist): improved thermostability

B17: G123A: A2aR point mutant (protein, UniProt P29274 1-412, looked up, variant G123A)
Adenosine receptor A2a: B1 Adenosine receptor A2a with A57V, G123A
[2]
  thermostability assayed with 3H-ZM241385 (antagonist): improved thermostability

B18: S213A: A2aR point mutant (protein, UniProt P29274 1-412, looked up, variant S213A)
Adenosine receptor A2a: B1 Adenosine receptor A2a with A57V, S213A
[2]
  thermostability measured with 3H-NECA (agonist): improved thermostability

B19: T119A: A2aR point mutant (protein, UniProt P29274 1-412, looked up, variant T119A)
Adenosine receptor A2a: B1 Adenosine receptor A2a with A57V, T119A
[2]
  thermostability assayed with 3H-ZM241385 (antagonist): improved thermostability

B20: Rant 5: A2aR with A54L/T88A/V239A (protein, UniProt P29274 1-412, looked up, variant A54L T88A V239A)
Adenosine receptor A2a: B1 Adenosine receptor A2a with A54L, A57V, T88A, V239A
[2]; [3]
  Tm (° C.) − antagonist: 42 °C
[2]; [4]
  Tm (° C.) + antagonist: 46 °C

B21: K122A: A2aR point mutant (protein, UniProt P29274 1-412, looked up, variant K122A)
Adenosine receptor A2a: B1 Adenosine receptor A2a with A57V, K122A
[2]
  thermostability assayed with 3H-ZM241385 (antagonist): improved thermostability

B22: G118A: A2aR point mutant (protein, UniProt P29274 1-412, looked up, variant G118A)
Adenosine receptor A2a: B1 Adenosine receptor A2a with A57V, G118A
[2]
  thermostability assayed with 3H-ZM241385 (antagonist): improved thermostability
  thermostability measured with 3H-NECA (agonist): improved thermostability

B23: T88A: A2aR point mutant (protein, UniProt P29274 1-412, looked up, variant T88A)
Adenosine receptor A2a: B1 Adenosine receptor A2a with A57V, T88A
[2]
  thermostability assayed with 3H-ZM241385 (antagonist): improved thermostability

B24: V239A: A2aR point mutant (protein, UniProt P29274 1-412, looked up, variant V239A)
Adenosine receptor A2a: B1 Adenosine receptor A2a with A57V, V239A
[2]
  thermostability assayed with 3H-ZM241385 (antagonist): improved thermostability

B25: L208A: A2aR point mutant (protein, UniProt P29274 1-412, looked up, variant L208A)
Adenosine receptor A2a: B1 Adenosine receptor A2a with A57V, L208A
[2]
  thermostability measured with 3H-NECA (agonist): improved thermostability
